Experimental data reported in patent US9944717 (BROTEIO PHARMA B V, dated 2018).
Numbering of substitutions follows the chain as printed.

How the values were obtained:
[1] = biological target: T1, C1s-cleaved glycosylated recombinant human C2 (human, UniProt P06681 21-243; P06681 244-752, N-linked glycans); experiment: ELISA, C1s-cleaved C2 coated at 200 ng per well
T1 construct: Cleavage at the Arg243-|-Lys244 bond as printed; also called C1s-cleaved recombinant human C2; C1s-cleaved C2; not shown: N-terminal his-tag
T1 sequence 1: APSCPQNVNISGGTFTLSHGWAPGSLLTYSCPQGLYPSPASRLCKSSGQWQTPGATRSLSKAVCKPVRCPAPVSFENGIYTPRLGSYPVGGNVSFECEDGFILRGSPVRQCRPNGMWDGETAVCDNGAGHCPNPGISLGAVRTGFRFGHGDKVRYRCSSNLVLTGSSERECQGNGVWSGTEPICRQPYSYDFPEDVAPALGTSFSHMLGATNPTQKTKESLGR
T1 sequence 2: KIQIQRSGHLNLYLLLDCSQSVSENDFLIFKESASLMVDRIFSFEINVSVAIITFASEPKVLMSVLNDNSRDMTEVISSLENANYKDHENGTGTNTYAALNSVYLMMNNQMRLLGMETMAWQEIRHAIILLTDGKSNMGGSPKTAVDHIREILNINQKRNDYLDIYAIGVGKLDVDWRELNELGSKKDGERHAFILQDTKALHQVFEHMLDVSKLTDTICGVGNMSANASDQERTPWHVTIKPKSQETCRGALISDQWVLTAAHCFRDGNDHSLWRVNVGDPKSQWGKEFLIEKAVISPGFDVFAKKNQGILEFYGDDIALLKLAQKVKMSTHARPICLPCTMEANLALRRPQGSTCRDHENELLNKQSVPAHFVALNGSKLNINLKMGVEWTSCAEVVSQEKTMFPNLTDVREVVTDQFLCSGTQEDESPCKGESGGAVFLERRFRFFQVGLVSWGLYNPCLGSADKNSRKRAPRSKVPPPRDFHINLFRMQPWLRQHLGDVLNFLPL

[2] = biological target: T2, glycosylated recombinant human complement C2 with a N-terminal his-tag (human, UniProt P06681 21-752, N-linked glycans); experiment: ELISA, C2 coated at 25 or 200 ng per well
T2 construct: also called recombinant human C2; wild-type recombinant C2; not shown: N-terminal his-tag
T2 sequence: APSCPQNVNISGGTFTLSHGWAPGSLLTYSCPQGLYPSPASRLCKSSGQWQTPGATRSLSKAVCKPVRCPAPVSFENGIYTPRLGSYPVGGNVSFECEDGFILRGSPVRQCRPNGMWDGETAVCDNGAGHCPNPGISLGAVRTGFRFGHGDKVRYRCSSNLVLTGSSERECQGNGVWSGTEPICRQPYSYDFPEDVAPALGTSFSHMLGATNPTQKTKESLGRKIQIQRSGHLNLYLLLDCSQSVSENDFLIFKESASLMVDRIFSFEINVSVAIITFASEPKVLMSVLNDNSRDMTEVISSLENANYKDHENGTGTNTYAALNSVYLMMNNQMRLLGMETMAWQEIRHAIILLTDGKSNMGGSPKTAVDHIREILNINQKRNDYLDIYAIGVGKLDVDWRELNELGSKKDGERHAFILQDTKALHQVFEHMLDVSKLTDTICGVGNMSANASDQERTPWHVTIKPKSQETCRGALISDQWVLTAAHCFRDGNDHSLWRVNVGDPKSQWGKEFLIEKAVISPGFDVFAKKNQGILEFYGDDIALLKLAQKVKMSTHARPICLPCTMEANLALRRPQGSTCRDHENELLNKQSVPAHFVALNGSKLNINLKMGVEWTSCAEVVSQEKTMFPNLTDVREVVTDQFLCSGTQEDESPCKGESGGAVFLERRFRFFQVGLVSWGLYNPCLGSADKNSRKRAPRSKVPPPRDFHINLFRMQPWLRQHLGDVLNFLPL
Method: Chimeric mouse-human antibodies (human IgG1κ version for anti-C2-32, and human IgG4κ version for anti-C2-5F2.4, -13, -32, -35 and -60) were expressed using FreeStyle™ MAX CHO (CHO-S cells) Expression System (Invitrogen). Expressed chimeric mouse-human anti-human complement C2 antibodies were purified using affinity chromatography protein A columns (GE Healthcare). Using the same ELISA procedure as described in Example 3, all anti-C2 chimeric mAbs were tested for binding to high (200 ng per well) and low (25 ng per well) recombinant C2. Briefly, ELISA plates (Corning) were coated with the indicated amount of C2 in PBS overnight at 4° C. After extensive washing in PBS/0.05% Tween 20, plates were blocked with PBS/0.05% Tween 20/1% BSA fraction V (Roche) for 1 hour at RT. […] After extensive washing in PBS/0.05% Tween 20, binding of antibodies was determined with 1:5000 diluted horseradish peroxidase-conjugated goat anti-human IgG-specific (heavy and light chains) antibodies (Jackson ImmunoResearch) for 1 hour at RT, followed by a ready-to-use solution of TMB substrate (Invitrogen) for colorimetric detection. After adding 1 M H_2SO_4, optical densities were measured at a wavelength of 450 nm (reference wavelength of 655 nm) using a microplate reader (BioRad).

[3] = biological target: T2, glycosylated recombinant human …; experiment: ELISA, recombinant human C2 immobilized at 2 µg/ml
Method: Chimeric mouse-human antibodies (human IgG1κ version for anti-C2-32, and human IgG4κ version for anti-C2-5F2.4, -13, -32, -35 and -60) were expressed using FreeStyle™ MAX CHO (CHO-S cells) Expression System (Invitrogen). Expressed chimeric mouse-human anti-human complement C2 antibodies were purified using affinity chromatography protein A columns (GE Healthcare). Using the same ELISA procedure as described in Example 3, all anti-C2 chimeric mAbs were tested for binding to high (200 ng per well) and low (25 ng per well) recombinant C2. Briefly, ELISA plates (Corning) were coated with the indicated amount of C2 in PBS overnight at 4° C. After extensive washing in PBS/0.05% Tween 20, plates were blocked with PBS/0.05% Tween 20/1% BSA fraction V (Roche) for 1 hour at RT. Subsequently, plates were incubated with 0, 0.00002-20.0 (10-fold dilution steps in block buffer) μg/mL protein A-purified chimeric mouse-human IgG1κ and/or IgG4κ anti-C2-5F2.4, -13, -32, -35 and -60 for 1 hour at RT. After extensive washing in PBS/0.05% Tween 20, binding of antibodies was determined with 1:5000 diluted horseradish peroxidase-conjugated goat anti-human IgG-specific (heavy and light chains) antibodies (Jackson ImmunoResearch) for 1 hour at RT, followed by a ready-to-use solution of TMB substrate (Invitrogen) for colorimetric detection. After adding 1 M H_2SO_4, optical densities were measured at a wavelength of 450 nm (reference wavelength of 655 nm) using a microplate reader (BioRad).
Binding of humanized anti-C2-5F2.4 mAbs versions VL3VH3, VL4VH3, VL3VH4, and VL4VH4 to C2 was assessed by ELISA like described above in Example 12 (recombinant human C2 was immobilized to plates at 2 µg/ml).

[4] = biological target: T2, glycosylated recombinant human …; experiment: ELISA, C2 coated at 200 ng per well
[5] = biological target: T3, glycosylated recombinant human subcomponent C2a (≈70 kDa) (human, UniProt P06681 244-752, N-linked glycans); experiment: Western blot of C1s-cleaved C2, non-reducing, mAb at 200 ng/mL
T3 construct: Larger fragment of C1s-cleaved recombinant C2; Start 244 follows from the printed cleavage site; also called purified C2a; recombinant human C2a
T3 sequence: T1 sequence 2
Method: (a). Mapping of Epitopes for mAbs Anti-C2-13, -32, -35, -60 and -5F2.4 on Glycosylated Recombinant Human Subcomponents C2a and C2b with Western Blotting Glycosylated recombinant human C2 (range 125-500 ng/lane, see FIG. 9; U-protein Express) or C1s-cleaved glycosylated recombinant human C2 (range 62.5-1000 ng/lane, see FIG. 9; for C2 cleavage procedure, see Example 1(b)) were electrophorized using 4-12% Tris-Bis gels and MOPS running buffer (Invitrogen) under non-reducing conditions in pre-cast SDS-PAGE (NuPage® Novex® system). Then, the C2 proteins were electro-blotted onto a polyvinylidene fluoride (PDVF) transfer membrane (Millipore). After blocking with PBS/0.05% Tween 20/1% BSA fraction V (Roche) for 20 min at RT, PDVF membranes were incubated with anti-C2 mAbs anti-C2-C2-5F2.4 (100 ng/mL), anti-C2-13 (200 ng/mL), anti-C2-32 (200 ng/mL), anti-C2-35 (100 ng/mL) and anti-C2-60 (200 ng/mL) for 1 hour at RT. After extensive washing in PBS/0.05% Tween 20, binding of anti-C2 mAbs was determined with 1:10,000 diluted horseradish peroxidase-conjugated goat anti-mouse Fcγ-specific antibodies (Jackson ImmunoResearch) for 1 hour at RT, followed by a ready-to-use solution of TMB substrate (Sigma) for colorimetric detection.

B1: mouse anti-human complement C2 antibody anti-C2-5F2.4 (mIgG2aκ) (antibody, V domains shown)
VH: EVQLQQSGAELVKPGASVKISCKASGYTFTDYNMDWVKQSHGKSLEWIGDINPNYESTGYNQKFKGKATLTVDKSSSTAYMELRSLTSEDTAVYYCAREDDHDAFAYWGQGTLVTVSA
VL: DNVLTQSPASVVVSLGQRATISCRASKSVRTSGYNYMHWYQQKPGQPPKLLIYLASNLKSGVPARFSGSGSGTDFTLNIHPVEEADAATYYCQHSRELPYTFGGGTKLEIKR
notes: also called mAb 5F2.4
B1: binds [1].

B2: chimeric mouse-human IgG4κ anti-human complement C2-5F2.4 (antibody, V domains shown)
VH: B1 VH
VL: B1 VL with N2I
notes: Stabilized human IgG4 / human κ, expressed in CHO-S cells; also called chimeric anti-C2-5F2.4; chuIgG4κ anti-C2-5F2.4
B2: binds [2].

B3: humanized IgG4/kappa anti-human complement C2-5F2.4 version VL3VH3 (antibody)
heavy: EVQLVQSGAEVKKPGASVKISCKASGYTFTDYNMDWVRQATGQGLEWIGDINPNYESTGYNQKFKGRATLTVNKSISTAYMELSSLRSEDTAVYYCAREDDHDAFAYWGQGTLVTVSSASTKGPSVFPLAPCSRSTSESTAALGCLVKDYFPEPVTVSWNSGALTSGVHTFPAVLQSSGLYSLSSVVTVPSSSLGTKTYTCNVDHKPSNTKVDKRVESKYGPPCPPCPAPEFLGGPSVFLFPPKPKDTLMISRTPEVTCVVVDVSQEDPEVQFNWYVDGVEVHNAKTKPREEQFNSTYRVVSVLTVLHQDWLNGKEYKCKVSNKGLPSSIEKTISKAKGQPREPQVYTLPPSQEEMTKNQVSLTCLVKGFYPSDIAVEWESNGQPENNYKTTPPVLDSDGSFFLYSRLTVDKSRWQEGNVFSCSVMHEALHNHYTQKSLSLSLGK
light: DNVLTQSPDSLAVSLGERATISCRASKSVRTSGYNYMHWYQQKPGQPPKLLIYLASNLKSGVPDRFSGSGSGTDFTLTISSLQAEDAATYYCQHSRELPYTFGQGTKLEIKRTVAAPSVFIFPPSDEQLKSGTASVVCLLNNFYPREAKVQWKVDNALQSGNSQESVTEQDSKDSTYSLSSTLTLSKADYEKHKVYACEVTHQGLSSPVTKSFNRGEC
notes: Stabilized human IgG4, κ; expressed with the FreeStyle 293 system
B3: binds [3].

B4: humanized IgG4/kappa anti-human complement C2-5F2.4 version VL3VH4 (antibody)
heavy: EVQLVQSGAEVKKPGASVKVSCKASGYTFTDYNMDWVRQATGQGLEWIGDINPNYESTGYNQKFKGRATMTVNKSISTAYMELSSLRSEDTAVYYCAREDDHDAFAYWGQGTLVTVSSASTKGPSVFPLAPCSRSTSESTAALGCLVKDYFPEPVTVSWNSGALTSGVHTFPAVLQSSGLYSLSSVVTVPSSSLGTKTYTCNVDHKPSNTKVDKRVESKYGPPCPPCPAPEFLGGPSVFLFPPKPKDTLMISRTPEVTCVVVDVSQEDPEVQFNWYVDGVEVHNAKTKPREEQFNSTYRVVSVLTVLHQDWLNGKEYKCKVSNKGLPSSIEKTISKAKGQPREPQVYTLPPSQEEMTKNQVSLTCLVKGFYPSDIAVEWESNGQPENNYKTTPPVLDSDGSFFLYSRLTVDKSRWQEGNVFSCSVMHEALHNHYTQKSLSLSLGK
light: B3 light
notes: as for B3
B4: binds [3].

B5: humanized IgG4/kappa anti-human complement C2-5F2.4 version VL4VH4 (antibody)
heavy: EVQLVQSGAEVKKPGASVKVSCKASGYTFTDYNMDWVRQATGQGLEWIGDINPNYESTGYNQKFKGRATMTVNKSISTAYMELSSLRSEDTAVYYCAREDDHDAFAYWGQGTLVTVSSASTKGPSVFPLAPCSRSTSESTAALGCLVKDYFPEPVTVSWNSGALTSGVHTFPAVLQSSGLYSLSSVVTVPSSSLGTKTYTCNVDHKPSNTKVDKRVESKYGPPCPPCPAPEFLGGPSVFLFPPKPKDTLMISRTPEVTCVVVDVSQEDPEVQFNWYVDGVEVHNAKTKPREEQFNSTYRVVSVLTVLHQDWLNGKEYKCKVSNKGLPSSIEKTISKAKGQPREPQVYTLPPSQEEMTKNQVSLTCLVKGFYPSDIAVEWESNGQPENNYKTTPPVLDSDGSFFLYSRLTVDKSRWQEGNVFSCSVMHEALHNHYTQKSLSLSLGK
light: B3 light with S22N
notes: as for B3
B5: binds [3].

B6: humanized IgG4/kappa anti-human complement C2-5F2.4 version VL4VH3 (antibody)
heavy: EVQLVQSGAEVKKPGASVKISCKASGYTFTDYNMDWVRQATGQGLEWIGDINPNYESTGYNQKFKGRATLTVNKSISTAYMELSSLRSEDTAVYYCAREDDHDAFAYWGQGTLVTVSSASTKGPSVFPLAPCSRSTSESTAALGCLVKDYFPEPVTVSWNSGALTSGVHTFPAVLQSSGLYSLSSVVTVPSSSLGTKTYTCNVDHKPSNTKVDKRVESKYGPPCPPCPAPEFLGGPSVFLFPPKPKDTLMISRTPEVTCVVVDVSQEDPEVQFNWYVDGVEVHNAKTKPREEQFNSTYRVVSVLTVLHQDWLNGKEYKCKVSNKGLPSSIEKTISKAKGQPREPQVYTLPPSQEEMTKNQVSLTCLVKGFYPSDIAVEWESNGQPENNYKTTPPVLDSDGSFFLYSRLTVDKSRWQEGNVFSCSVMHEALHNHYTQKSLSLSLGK
light: B3 light with S22N
notes: as for B3
B6: binds [3].

B7: mouse anti-human complement C2 antibody anti-C2-60 (mIgG1κ) (antibody, V domains shown)
VH: QVALKESGPGILQPSQTLSLTCSFSGFSLSTSNMGVGWIRQPSGKGLEWLAHIWWDDDKRYNPALKSRLTISKDTSSNQVFLKIASVDTADTATYFCARIGRPTMITTWYLDVWGAGTTVTVSS
VL: DIQMTQSPASLSVSVGETVTITCRASENIYSNLAWYQQKQGKSPQLLVYAATKLADGVPSRFSGSGSGTQYSLKINSLQSEDFGNYYCQHFWNTPYTFGGGTKLEIKR
notes: Hybridoma antibody, murine IgG1κ; also called antibody 60; hybridoma 60
B7: binds [4]; binds [1]; binds [5].

B8: chimeric mouse-human IgG4κ anti-human complement C2-60 (antibody, V domains shown)
VH: B7 VH with A3Q, K5Q, E6Q
VL: B7 VL
notes: Stabilized human IgG4 / human κ, expressed in CHO-S cells; also called chimeric anti-C2-60; chuIgG4κ anti-C2-60
B8: binds [2].
